Results from patent publication US20230167164A1 (IMMUNOWAKE, published 2023).

T1: mouse PD-1 (mouse, UniProt Q02242 25-167, limits assumed)
T1 construct: also called mPD-1
T1 sequence (looked up): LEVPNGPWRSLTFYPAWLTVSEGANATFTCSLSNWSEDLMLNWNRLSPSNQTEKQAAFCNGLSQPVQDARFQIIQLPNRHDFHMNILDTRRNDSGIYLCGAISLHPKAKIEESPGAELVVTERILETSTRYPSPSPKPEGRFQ


Experiments:
[1] = molecular target: T1, mouse PD-1; assay: PD-L1-Fc format, calibrated on PD-L1(wt)-Fc binding affinity
[2] = molecular target: T2, human PD-1 (human, UniProt Q15116 25-167, limits assumed); assay: as above
T2 construct: nivolumab is called an anti-human PD-1 antibody; also called hPD-1

[3] = molecular target: human PD-1 overexpressed on HEK-Blue reporter cells (human, UniProt Q15116 25-288); assay: cell-based or functional assay
[4] = molecular target: human IL-12 receptor complex (human, UniProt P42701 24-662; Q99665 24-862); assay: cell-based or functional assay
human IL-12 receptor complex, sequence (Q99665 24-862, chain 2 of 2, other chains not shown): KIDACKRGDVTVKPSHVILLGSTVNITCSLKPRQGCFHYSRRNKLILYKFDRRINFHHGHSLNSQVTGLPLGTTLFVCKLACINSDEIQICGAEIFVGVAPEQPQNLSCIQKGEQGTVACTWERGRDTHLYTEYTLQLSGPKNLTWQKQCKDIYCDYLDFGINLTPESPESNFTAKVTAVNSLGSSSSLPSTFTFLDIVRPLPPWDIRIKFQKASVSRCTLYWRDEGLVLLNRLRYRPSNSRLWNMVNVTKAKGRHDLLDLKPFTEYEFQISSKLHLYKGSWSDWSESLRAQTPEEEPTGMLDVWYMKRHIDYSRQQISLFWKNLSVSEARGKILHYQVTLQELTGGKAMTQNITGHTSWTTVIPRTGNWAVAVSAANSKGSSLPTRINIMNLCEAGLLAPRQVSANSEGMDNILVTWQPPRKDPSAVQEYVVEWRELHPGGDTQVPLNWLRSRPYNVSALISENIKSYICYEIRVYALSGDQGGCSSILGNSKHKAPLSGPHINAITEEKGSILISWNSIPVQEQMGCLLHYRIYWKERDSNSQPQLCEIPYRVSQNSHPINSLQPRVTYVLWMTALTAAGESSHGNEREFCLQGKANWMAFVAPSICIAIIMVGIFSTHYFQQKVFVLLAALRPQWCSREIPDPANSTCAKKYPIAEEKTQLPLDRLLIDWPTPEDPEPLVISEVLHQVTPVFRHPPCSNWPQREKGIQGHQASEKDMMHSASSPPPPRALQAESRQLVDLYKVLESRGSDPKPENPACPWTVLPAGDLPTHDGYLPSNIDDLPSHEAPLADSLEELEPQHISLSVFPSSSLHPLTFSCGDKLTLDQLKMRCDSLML

T2 sequence (Q15116 25-167 limits assumed): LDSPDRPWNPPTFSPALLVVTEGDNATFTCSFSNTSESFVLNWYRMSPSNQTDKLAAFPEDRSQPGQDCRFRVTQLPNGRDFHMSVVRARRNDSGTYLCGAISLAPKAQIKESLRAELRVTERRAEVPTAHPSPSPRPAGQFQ
human PD-1 overexpressed on HEK-Blue reporter cells, sequence (Q15116 25-288): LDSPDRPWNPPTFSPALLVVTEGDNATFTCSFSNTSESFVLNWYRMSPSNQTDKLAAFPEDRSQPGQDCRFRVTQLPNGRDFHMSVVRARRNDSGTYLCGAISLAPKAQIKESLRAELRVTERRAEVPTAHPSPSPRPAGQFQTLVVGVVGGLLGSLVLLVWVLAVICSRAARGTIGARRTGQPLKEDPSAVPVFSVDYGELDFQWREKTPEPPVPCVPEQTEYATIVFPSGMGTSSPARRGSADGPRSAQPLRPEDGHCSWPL

Binder	Kd [1]	Kd [2]	IL-12 signal transduction, % of rIL-12, HEK-IL-12-PD-1 cells [3]	IL-12 signal transduction, % of rIL-12, HEK-IL-12 cells [4]
PD-L1(mut3)-Fc (Fc fusion, also called I54Q/R113T/M115L/S117A/G119K) chain 1: FTVTVPKDLYVVEYGSNMTIECKFPVEKQLDLAALQVYWEMEDKNIIQFVHGEEDLKVQHSSYRQRARLLKDQLSLGNAALQITDVKLQDAGVYTCLIAYKGADYKRITVKVNAPYNKINQRILVVDPVTSEHELTCQAEGYPKAEVIWTSSDHQVLSGKTTTTNSKREEKLFNVTSTLRINTTTNEIFYCTFRRLDPEENHTAELVIPELPLAHPPNERDKTHTCPPCPAPEDEGGPSVFLFPPKPKDTLMISRTPEVTCVVVDVSHEDPEVKFNWYVDGVEVHNAKTKPREEQYNSTYRVVSVLTVLHQDWLNGKEYKCKVSNKALPAPIEKTISKAKGQPREPQVYVYPPSREEMTKNQVSLTCLVKGFYPSDIAVEWESNGQPENNYKTTPPVLDEDGSFALVSKLTVDKSRWQQGNVFSCSVMHEALHNHYTQKSLSLSPGK chain 2: FTVTVPKDLYVVEYGSNMTIECKFPVEKQLDLAALQVYWEMEDKNIIQFVHGEEDLKVQHSSYRQRARLLKDQLSLGNAALQITDVKLQDAGVYTCLIAYKGADYKRITVKVNAPYNKINQRILVVDPVTSEHELTCQAEGYPKAEVIWTSSDHQVLSGKTTTTNSKREEKLFNVTSTLRINTTTNEIFYCTFRRLDPEENHTAELVIPELPLAHPPNERDKTHTCPPCPAPEKKGGPSVFLFPPKPKDTLMISRTPEVTCVVVDVSHEDPEVKFNWYVDGVEVHNAKTKPREEQYNSTYRVVSVLTVLHQDWLNGKEYKCKVSNKALPAPIEKTISKAKGQPREPQVYVLPPSREEMTKNQVSLLCLVKGFYPSDIAVEWESNGQPENRYMTWPPVLDSDGSFFLYSKLTVDKSRWQQGNVFSCSVMHEALHNHYTQKSLSLSPGK	820 nM	910 nM		
PD-L1(mut5)-Fc (Fc fusion, also called I54Q/E58M/R113T/S117A/G119K) chain 1: FTVTVPKDLYVVEYGSNMTIECKFPVEKQLDLAALQVYWMMEDKNIIQFVHGEEDLKVQHSSYRQRARLLKDQLSLGNAALQITDVKLQDAGVYTCMIAYKGADYKRITVKVNAPYNKINQRILVVDPVTSEHELTCQAEGYPKAEVIWTSSDHQVLSGKTTTTNSKREEKLFNVTSTLRINTTTNEIFYCTFRRLDPEENHTAELVIPELPLAHPPNERDKTHTCPPCPAPEDEGGPSVFLFPPKPKDTLMISRTPEVTCVVVDVSHEDPEVKFNWYVDGVEVHNAKTKPREEQYNSTYRVVSVLTVLHQDWLNGKEYKCKVSNKALPAPIEKTISKAKGQPREPQVYVYPPSREEMTKNQVSLTCLVKGFYPSDIAVEWESNGQPENNYKTTPPVLDEDGSFALVSKLTVDKSRWQQGNVFSCSVMHEALHNHYTQKSLSLSPGK chain 2: FTVTVPKDLYVVEYGSNMTIECKFPVEKQLDLAALQVYWMMEDKNIIQFVHGEEDLKVQHSSYRQRARLLKDQLSLGNAALQITDVKLQDAGVYTCMIAYKGADYKRITVKVNAPYNKINQRILVVDPVTSEHELTCQAEGYPKAEVIWTSSDHQVLSGKTTTTNSKREEKLFNVTSTLRINTTTNEIFYCTFRRLDPEENHTAELVIPELPLAHPPNERDKTHTCPPCPAPEKKGGPSVFLFPPKPKDTLMISRTPEVTCVVVDVSHEDPEVKFNWYVDGVEVHNAKTKPREEQYNSTYRVVSVLTVLHQDWLNGKEYKCKVSNKALPAPIEKTISKAKGQPREPQVYVLPPSREEMTKNQVSLLCLVKGFYPSDIAVEWESNGQPENRYMTWPPVLDSDGSFFLYSKLTVDKSRWQQGNVFSCSVMHEALHNHYTQKSLSLSPGK	1100 nM	1200 nM		
PD-L1(mut4)-Fc (Fc fusion, also called I54Q/E58M/M115L/S117A/G119K) chain 1: FTVTVPKDLYVVEYGSNMTIECKFPVEKQLDLAALQVYWMMEDKNIIQFVHGEEDLKVQHSSYRQRARLLKDQLSLGNAALQITDVKLQDAGVYRCLIAYKGADYKRITVKVNAPYNKINQRILVVDPVTSEHELTCQAEGYPKAEVIWTSSDHQVLSGKTTTTNSKREEKLFNVTSTLRINTTTNEIFYCTFRRLDPEENHTAELVIPELPLAHPPNERDKTHTCPPCPAPEDEGGPSVFLFPPKPKDTLMISRTPEVTCVVVDVSHEDPEVKFNWYVDGVEVHNAKTKPREEQYNSTYRVVSVLTVLHQDWLNGKEYKCKVSNKALPAPIEKTISKAKGQPREPQVYVYPPSREEMTKNQVSLTCLVKGFYPSDIAVEWESNGQPENNYKTTPPVLDEDGSFALVSKLTVDKSRWQQGNVFSCSVMHEALHNHYTQKSLSLSPGK chain 2: FTVTVPKDLYVVEYGSNMTIECKFPVEKQLDLAALQVYWMMEDKNIIQFVHGEEDLKVQHSSYRQRARLLKDQLSLGNAALQITDVKLQDAGVYRCLIAYKGADYKRITVKVNAPYNKINQRILVVDPVTSEHELTCQAEGYPKAEVIWTSSDHQVLSGKTTTTNSKREEKLFNVTSTLRINTTTNEIFYCTFRRLDPEENHTAELVIPELPLAHPPNERDKTHTCPPCPAPEKKGGPSVFLFPPKPKDTLMISRTPEVTCVVVDVSHEDPEVKFNWYVDGVEVHNAKTKPREEQYNSTYRVVSVLTVLHQDWLNGKEYKCKVSNKALPAPIEKTISKAKGQPREPQVYVLPPSREEMTKNQVSLLCLVKGFYPSDIAVEWESNGQPENRYMTWPPVLDSDGSFFLYSKLTVDKSRWQQGNVFSCSVMHEALHNHYTQKSLSLSPGK	980 nM	1090 nM		
PD-L1(mut2)-Fc/IL-12(E59A/F60A) (Fc fusion) chain 1: FTVTVPKDLYVVEYGSNMTIECKFPVEKQLDLAALQVYWMMEDKNIIQFVHGEEDLKVQHSSYRQRARLLKDQLSLGNAALQITDVKLQDAGVYTCLIAYKGADYKRITVKVNAPYNKINQRILVVDPVTSEHELTCQAEGYPKAEVIWTSSDHQVLSGKTTTTNSKREEKLFNVTSTLRINTTTNEIFYCTFRRLDPEENHTAELVIPELPLAHPPNERGGGGSGGGDKTHTCPPCPAPEDEGGPSVFLFPPKPKDTLMISRTPEVTCVVVDVSHEDPEVKFNWYVDGVEVHNAKTKPREEQYNSTYRVVSVLTVLHQDWLNGKEYKCKVSNKALPAPIEKTISKAKGQPREPQVYVYPPSREEMTKNQVSLTCLVKGFYPSDIAVEWESNGQPENNYKTTPPVLDEDGSFALVSKLTVDKSRWQQGNVFSCSVMHEALHNHYTQKSLSLSPGKGGGGSGGGIWELKKDVYVVELDWYPDAPGEMVVLTCDTPEEDGITWTLDQSSEVLGSGKTLTIQVKAAGDAGQYTCHKGGEVLSHSLLLLHKKEDGIWSTDILKDQKEPKNKTFLRCEAKNYSGRFTCWWLTTISTDLTFSVKSSRGSSDPQGVTCGAATLSAERVRGDNKEYEYSVECQEDSACPAAEESLPIEVMVDAVHKLKYENYTSSFFIRDIIKPDPPKNLQLKPLKNSRQVEVSWEYPDTWSTPHSYFSLTFCVQVQGKSKREKKDRVFTDKTSATVICRKNASISVRAQDRYYSSSWSEWASVPCSGGGGSGGGSGGGGSRNLPVATPDPGMFPCLHHSQNLLRAVSNMLQKARQTLEFYPCTSEEIDHEDITKDKTSTVEACLPLELTKNESCLNSRETSFITNGSCLASRKTSFMMALCLSSIYEDLKMYQVEFKTMNAKLLMDPKRQIFLDQNMLAVIDELMQALNFNSETVPQKSSLEEPDFYKTKIKLCILLHAFRIRAVTIDRVMSYLNAS chain 2: FTVTVPKDLYVVEYGSNMTIECKFPVEKQLDLAALQVYWMMEDKNIIQFVHGEEDLKVQHSSYRQRARLLKDQLSLGNAALQITDVKLQDAGVYTCLIAYKGADYKRITVKVNAPYNKINQRILVVDPVTSEHELTCQAEGYPKAEVIWTSSDHQVLSGKTTTTNSKREEKLFNVTSTLRINTTTNEIFYCTFRRLDPEENHTAELVIPELPLAHPPNERGGGGSGGGDKTHTCPPCPAPEKKGGPSVFLFPPKPKDTLMISRTPEVTCVVVDVSHEDPEVKFNWYVDGVEVHNAKTKPREEQYNSTYRVVSVLTVLHQDWLNGKEYKCKVSNKALPAPIEKTISKAKGQPREPQVYVLPPSREEMTKNQVSLLCLVKGFYPSDIAVEWESNGQPENRYMTWPPVLDSDGSFFLYSKLTVDKSRWQQGNVFSCSVMHEALHNHYTQKSLSLSPGK			25%	1%
PD-L1(mut2)-Fc (Fc fusion, also called PD-L1(I54Q/E58M/R113T/M115L/S117A/G119K)) chain 1: FTVTVPKDLYVVEYGSNMTIECKFPVEKQLDLAALQVYWMMEDKNIIQFVHGEEDLKVQHSSYRQRARLLKDQLSLGNAALQITDVKLQDAGVYTCLIAYKGADYKRITVKVNAPYNKINQRILVVDPVTSEHELTCQAEGYPKAEVIWTSSDHQVLSGKTTTTNSKREEKLFNVTSTLRINTTTNEIFYCTFRRLDPEENHTAELVIPELPLAHPPNERGGGGSGGGDKTHTCPPCPAPEDEGGPSVFLFPPKPKDTLMISRTPEVTCVVVDVSHEDPEVKFNWYVDGVEVHNAKTKPREEQYNSTYRVVSVLTVLHQDWLNGKEYKCKVSNKALPAPIEKTISKAKGQPREPQVYVYPPSREEMTKNQVSLTCLVKGFYPSDIAVEWESNGQPENNYKTTPPVLDEDGSFALVSKLTVDKSRWQQGNVFSCSVMHEALHNHYTQKSLSLSPGK chain 2: FTVTVPKDLYVVEYGSNMTIECKFPVEKQLDLAALQVYWMMEDKNIIQFVHGEEDLKVQHSSYRQRARLLKDQLSLGNAALQITDVKLQDAGVYTCLIAYKGADYKRITVKVNAPYNKINQRILVVDPVTSEHELTCQAEGYPKAEVIWTSSDHQVLSGKTTTTNSKREEKLFNVTSTLRINTTTNEIFYCTFRRLDPEENHTAELVIPELPLAHPPNERGGGGSGGGDKTHTCPPCPAPEKKGGPSVFLFPPKPKDTLMISRTPEVTCVVVDVSHEDPEVKFNWYVDGVEVHNAKTKPREEQYNSTYRVVSVLTVLHQDWLNGKEYKCKVSNKALPAPIEKTISKAKGQPREPQVYVLPPSREEMTKNQVSLLCLVKGFYPSDIAVEWESNGQPENRYMTWPPVLDSDGSFFLYSKLTVDKSRWQQGNVFSCSVMHEALHNHYTQKSLSLSPGK	120 nM	150 nM		
